In one assay the target is T1, PPARγ (Homo sapiens, UniProt P37231).
T1 construct: gene PPARG; no SRC1 peptide; In-house His6-LBD 206-477 (E. coli) used for crystal and kinase assay
T1 sequence (P37231 234-505 limits assumed): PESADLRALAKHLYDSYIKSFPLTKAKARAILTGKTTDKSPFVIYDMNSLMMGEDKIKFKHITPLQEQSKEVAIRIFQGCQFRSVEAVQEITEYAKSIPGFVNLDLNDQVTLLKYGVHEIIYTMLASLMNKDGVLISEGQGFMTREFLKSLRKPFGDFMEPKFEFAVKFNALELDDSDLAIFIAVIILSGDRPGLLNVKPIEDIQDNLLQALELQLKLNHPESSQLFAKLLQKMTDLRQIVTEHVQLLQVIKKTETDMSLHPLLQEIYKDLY
In words: crystal structure at […] Å; Lantha TR-FRET competitive binding; AlphaScreen.

Assay [1] concerns the target T2, Human PPARγ LBD (residues 206–477) (human, UniProt P37231-2 206-477).
T2 construct: The tag is detected in the AlphaScreen (hexahistidine detection kit); also called NR1C3; source: E. coli BL21(DE3), purified (Ni HiTrap HP, SP-Sepharose); not shown: His6, N-terminal, kept
T2 sequence (looked up): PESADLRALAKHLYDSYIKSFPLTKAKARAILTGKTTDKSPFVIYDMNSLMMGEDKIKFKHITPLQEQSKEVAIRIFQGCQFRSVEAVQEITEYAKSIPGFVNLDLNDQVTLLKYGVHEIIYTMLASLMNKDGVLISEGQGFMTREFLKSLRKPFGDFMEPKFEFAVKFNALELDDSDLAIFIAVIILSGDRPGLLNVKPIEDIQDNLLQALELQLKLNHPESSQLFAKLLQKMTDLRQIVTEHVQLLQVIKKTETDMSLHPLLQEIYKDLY
The assay is described as follows: AlphaScreen or HTRF; hexahistidine detection kit; about 20–40 nmol/l His6-PPARγ LBD and 20 nmol/l biotinylated peptide, 5 μg/ml donor and acceptor beads; 50 mmol/l MOPS, 50 mmol/l NaF, 0.05 mmol/l CHAPS, 0.1 mg/ml BSA, pH 7.4; with chelerythrine (5 μmol/l, and dose curves). The conditions noted are these: both partners purified.

Assay [2] deals with T2, Human PPARγ LBD (residues 206–477). The assay is described as follows: AlphaScreen or HTRF; hexahistidine detection kit; about 20–40 nmol/l His6-PPARγ LBD and 20 nmol/l biotinylated peptide, 5 μg/ml donor and acceptor beads; 50 mmol/l MOPS, 50 mmol/l NaF, 0.05 mmol/l CHAPS, 0.1 mg/ml BSA, pH 7.4; with rosiglitazone (1 μmol/l, and dose curves). The conditions noted are these: both partners purified.

Where no end group is shown, it is not given here. The star is where a group is joined. Biotin = O=C1N[C@H]2[C@H](CS[C@H]2CCCCC(=O)*)N1

On to `COc1ccc2c(c[n+](C)c3c4cc5c(cc4ccc23)OCO5)c1OC` [CHE, chelerythrine], for which the IC50 on PPARγ is 566 nM.

B1: NCoR-2, a corepressor peptide from NCoR, N-terminally biotinylated (peptide)
peptide: Biotin-GHSFADPASNLGLEDIIRKALMGSF
notes: second corepressor motif peptide from NCoR (nuclear receptor corepressor 1; not the gene NCOR2/SMRT); also called NCoR-2 corepressor
In the case of B1, the binding result in assay [1] is listed as “binds”.

Take Biotin-QEPVSPKKKENALLRYLLDKDDTKD [SRC2 coactivator peptide, N-terminally biotinylated]: the binding result in assay [2] was “binds”. Consider Biotin-SPSSHSSLTERHKILHRLLQEGSP [SRC1 coactivator peptide, N-terminally biotinylated], for which the binding result in assay [2] was “binds”.

Source of the values: PMC4505335, “Selective targeting of PPARγ by the natural product chelerythrine with a unique binding mode and improved antidiabetic potency” (Scientific Reports, 2015).
